Data on 5 molecules can be found in patent publication US20250154268A1 (NONA BIOSCIENCES SUZHOU, published 2025).

Experiment [1] deals with T1, human CD25 (human, UniProt P01589 22-272).
T1 construct: whole, on cells; Always presented on cells; also called huCD25; IL2Rα
T1 sequence (looked up): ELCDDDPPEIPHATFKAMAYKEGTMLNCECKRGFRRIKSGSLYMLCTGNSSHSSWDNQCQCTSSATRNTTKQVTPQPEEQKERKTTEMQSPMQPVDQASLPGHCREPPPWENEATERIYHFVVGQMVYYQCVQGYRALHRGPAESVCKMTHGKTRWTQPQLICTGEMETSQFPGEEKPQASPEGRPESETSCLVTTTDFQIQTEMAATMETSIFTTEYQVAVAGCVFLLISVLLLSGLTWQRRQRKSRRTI
Put plainly: flow cytometry, Karpas299 cells.
Protocol: (§1) This example was intended to study the in-vitro binding activity of H2L2 monoclonal antibodies against human CD25 to human/cynomolgus monkey CD25. […] Briefly, the CHOK1-huCD25 cells and HEK293-cynoCD25 cells were digested, the SU-DHL-1 cells, Karpas299 cells, Treg cells and Teff cells were collected, and the cells were resuspended in PBS containing 2% BSA. The cells were adjusted to a cell density of 1×10⁶ cells/mL, respectively. […] The cells were incubated at 4° C. for 1 hour in the dark. After the incubation, the cells were rinsed twice by adding pre-chilled PBS containing 2% BSA at 100 μL/well, and centrifuged at 500 g at 4° C. for 5 minutes, and the supernatant was discarded. […] The cells were washed twice by adding pre-chilled PBS containing 2% BSA at 100 μL/well, and centrifuged at 500 g at 4° C. for 5 minutes, and the supernatant was discarded. Finally, the cells were resuspended in pre-chilled PBS containing 2% BSA at 200 μL/well, and the fluorescence signal values were read using a BD CantoII flow cytometer.

Experiment [2] deals with T1, human CD25. Put plainly: flow cytometry, SU-DHL-1 cells. On the technique in general: Flow cytometry measures light scatter and fluorescence of single cells or particles in a stream.
Protocol: (§2) Briefly, the CHOK1-huCD25 cells and HEK293-cynoCD25 cells were digested, the SU-DHL-1 cells, Karpas299 cells, Treg cells and Teff cells were collected, and the cells were resuspended in PBS containing 2% BSA. The cells were adjusted to a cell density of 1×10⁶ cells/mL, respectively. […] The cells were incubated at 4° C. for 1 hour in the dark. After the incubation, the cells were rinsed twice by adding pre-chilled PBS containing 2% BSA at 100 μL/well, and centrifuged at 500 g at 4° C. for 5 minutes, and the supernatant was discarded. […] The cells were washed twice by adding pre-chilled PBS containing 2% BSA at 100 μL/well, and centrifuged at 500 g at 4° C. for 5 minutes, and the supernatant was discarded. Finally, the cells were resuspended in pre-chilled PBS containing 2% BSA at 200 μL/well, and the fluorescence signal values were read using a BD CantoII flow cytometer.
Experiment [3] has as its target T1, human CD25. Put plainly: flow cytometry, Karpas299 cells. This is another data set of the same source.
Protocol: as §1
Experiment [4] addresses T1, human CD25. Put plainly: flow cytometry, SU-DHL-1 cells. The source holds these as a separate data set.
Protocol: as §2
Experiment [5] deals with T2, cynomolgus monkey CD25 (cynomolgus monkey, UniProt H6WS54 22-272).
T2 construct: whole, on cells; also called cynoCD25
T2 sequence: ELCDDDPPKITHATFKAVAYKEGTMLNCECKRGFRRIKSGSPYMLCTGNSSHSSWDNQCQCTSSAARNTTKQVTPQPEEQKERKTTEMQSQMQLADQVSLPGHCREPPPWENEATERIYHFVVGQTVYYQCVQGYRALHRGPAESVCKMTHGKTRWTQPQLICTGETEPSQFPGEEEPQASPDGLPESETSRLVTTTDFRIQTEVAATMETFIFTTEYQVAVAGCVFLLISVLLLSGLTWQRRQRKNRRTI
Put plainly: flow cytometry, HEK293-cynoCD25 cells.
Protocol: as §1

Experiment [6] has as its target T1, human CD25. Description: flow cytometry, CHOK1-huCD25 cells.
Protocol: as §1
In experiment [7] the target is T1, human CD25. Description: flow cytometry, Karpas299 cells. The source holds these as a separate data set.
The target of experiment [8] is T1, human CD25. Description: flow cytometry, SU-DHL-1 cells. The source holds these as a separate data set.
Protocol: as §2
The target in experiment [9] is T2, cynomolgus monkey CD25. Put plainly: flow cytometry, HEK293-cynoCD25 cells. This is another data set of the same source.
Protocol: as §2
Experiment [10] deals with T1, human CD25. Put plainly: flow cytometry, Karpas299 cells. The source holds these as a separate data set.
Protocol: as §1
In experiment [11] the target is T1, human CD25. Put plainly: flow cytometry, SU-DHL-1 cells. This is another data set of the same source.
Protocol: as §2
For experiment [12], the target named is T1, human CD25. Put plainly: flow cytometry, Karpas299 cells. The source holds these as a separate data set.
Protocol: as §1
Experiment [13] addresses T2, cynomolgus monkey CD25. Description: flow cytometry, HEK293-cynoCD25 cells. The source holds these as a separate data set.
Protocol: as §1
Experiment [14] addresses T1, human CD25. Put plainly: flow cytometry, SU-DHL-1 cells. This is another data set of the same source.
Protocol: as §2

Read-outs that look alike come from different tables or passages of the source.

B1: PR008015 (antibody, human IgG1, kappa, V domains shown)
VH: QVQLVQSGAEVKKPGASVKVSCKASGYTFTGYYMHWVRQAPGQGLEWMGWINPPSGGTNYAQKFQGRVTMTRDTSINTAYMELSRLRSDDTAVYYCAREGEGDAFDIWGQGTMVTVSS
VL: DFQMTQSPSTLSASVGDRVTITCRASQSISSWLAWYQQKPGKAPKLLIYEASSLKSGVPSRFSGSESGTEFTLTISSLQPDDFATYYCHQYMSYSTFGQGTKVEIKR
notes: PTM variant of PR006931 (VH:N54P, S60Y); human IgG1
As for B1, the EC50 – broadly, the concentration at which the effect is half-maximal – came to 20 nM in experiment [1] and 0.85 nM in experiment [2].

B2: PR005497 (antibody, human IgG1, kappa, V domains shown)
VH: QVQLQQSGPGLVKPSQTLSLTCAISGDSVSNNNAAWNWIRQSPSRGLEWLGRTHYRSDRSKWYNDYAVSVKSRITINSDTFKNQFSLQLNPVTPEDTAVYYCARDWDHDAFDIWGQGTMVTVSS
VL: DIQMTQSPSTLSASVGDRVTITCRASQSISGWLAWYQQKPGKAPKLLIYKASSLETGVPSRFSGSGSGTEFTLTISSLQPDDFATYYCLQYNGYSTFGGGTKVEIKR
notes: Fully human recombinant IgG1, kappa; also called 245E10F1
With B2, the EC50 in experiment [3] was determined as 2.81 nM; in experiment [4], 2.4 nM; in experiment [5], 6.4 nM; in experiment [6] it was 2.73 nM.

B3: PR008016 (antibody, human IgG1, kappa, V domains shown)
VH: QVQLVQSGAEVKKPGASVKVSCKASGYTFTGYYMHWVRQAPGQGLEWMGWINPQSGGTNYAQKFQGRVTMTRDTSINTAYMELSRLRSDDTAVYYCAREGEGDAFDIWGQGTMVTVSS
VL: DFQMTQSPSTLSASVGDRVTITCRASQSISSWLAWYQQKPGKAPKLLIYEASSLKSGVPSRFSGSESGTEFTLTISSLQPDDFATYYCHQYMSYSTFGQGTKVEIKR
notes: PTM variant of PR006931 (VH:N54Q, S60Y); human IgG1
As for B3, the results for the EC50 in experiment [7], in experiment [8] and in experiment [9] were 40 nM, 4.02 nM and 2.25 nM, respectively. The “Maximum MFI” value came to 8600 MFI in experiment [7], 34500 MFI in [8] and 27900 MFI in experiment [9].

B4: PR006110 (antibody, V domains shown)
VH: QVQLQESGPGLVKPSGTLSLTCAVSGGSISSSNYWSWVRQPPGKGLEWIGEIYHSGSTNYNPSLKSRVTISLDKSKNQFSLKLSSVTAADTAVYYCARDRNYGSGNYPHYYHYYGMDVWGQGTTVTVSS
VL: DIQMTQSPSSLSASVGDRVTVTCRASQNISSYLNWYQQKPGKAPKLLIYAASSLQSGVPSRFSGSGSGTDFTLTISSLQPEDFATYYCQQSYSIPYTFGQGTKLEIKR
notes: Fully human recombinant IgG1, kappa; also called 307B8G6
For B4, the EC50 is 1.73 nM in experiment [10] and 1.95 nM in experiment [11].

B5: PR008197 (antibody, human IgG1, kappa, V domains shown)
VH: QVQLQGSGPGLVKPSGTLSLTCAVSPGSISSSNWWNWVRQPPGKGLEWIGEIYHRGSTNYNPSLKSRVTISVDKSKNQFSLKLSSVTAADTAVYYCTHYYYDSSGYYYGYWGQGTLVTVSS
VL: DIVMTQSPLSLPVTPGEPASISCRSSQSLLHRDVYNYVDWYLQKPGQSPQLLIYLGSNRASGVPDRFSGSGSGTDFTLKISRVEAEDVGVYYCLQALQTPLTFGGGTKVEIKR
notes: PTM variant of PR005436 (VH:D26P); human IgG1
As to B5, the 50% effective concentration (EC50) was found to be 8 nM in experiment [12], 2.25 nM in experiment [13] and 1.55 nM in experiment [14].
